Laboratory results reported in the DeepSol protein solubility set.

Assay: soluble on expression in E. coli; label from the status in PepcDB or PDB records

Row | Sequence | soluble on expression in E. coli
1 | MGSDKIHHHHHHMNNLYHLKVRCSSLHKIIGEPKSKADKEAGKLTDTAKSAVREMAKFDLFGYNAFEGNKYTQKGNELEEQAIKLSGVTRGLALKKNTERRENEFITGECDIYVPSRKLIIDTKCSWDIGSHPFFTDEAQEKAKKAGYDIQMQGYMWLWDCDQAQIDFVLFPTPLNLISAYDSDFKLIDLVEQIPQIRRITTVIIQRDNELIDKIKERVSAAQKYYDQLISEMS | not soluble
2 | MLLTPAKTTRTEDSANSTDDSSKSSNSFMRAIVSSLMVKPITSLTNTVTCRQSSHHNSSPSKITRYDLIKAAAENDLKRSKSQGREKSRRNSNRRNNEEIFVANTASEIQRTKSSI | soluble
3 | MLPSTSKSVEVNENSEEPIELEENVIVVTGDEIQAEIAVVDGEEVIFADDDEYIEYDPLSIANDRNAVYDIYQPHESENGTFMCKICMRTGKNTEYEDRSTFVAHRYKCHGSFNNNVMCPLGDCREVFASLYTLRRHLSQQHELPIEIHLQSFVNIGEFEKFRHLVELASGCRFMMHTKQPKYRRQVMHCSKSEHKLVLQTQKHRLPRERMLKEGSACPSVISYRVESSSGEVHTFMQLYHIGHAPDTESQNSNADNARPMDIVFPIKPACWANHPMQYVQIDVHEMPTSIYGNKIYDNILIVTCLKTRFLWAKPLFECTRTAIGRILNSIFNEYGVPEGFSTSFSPTYIRDTIKSLESVYAVEIREVWNEPLPYNCLERWVLELAQNELGTRNRWVEQLQFLVMEYNQKPIPDRMETPFERMFNRKAPNLYHNGDNQEIIHDKYISYHSELRNEEEGVENRLNTSFEPGRKVFLRKGITKPRRGNNTQYYFGYIGEVDPSNPYYPFKVHYTSSDSPWPSERNIYAWVSVFDLLPTIHEISEMSMTSKKVSIAGLLCSCMGIESSQKYDLTAMGDIARESSRCLLFRNCLCTNQMSRFCCKLVGREHCRFHSVYPENDESYAKMDAALSSFIAYNKDSSKEAEKDLQDSTPIEQILNEVGRRRLESEITVEDPEDLAPPILEPMEPTERHLDTEEEEEEPNQIPMASEHIDIEGVDEEEIMEHSVNAISEEILFEYADDKRDDGPSTPKRGRRRKSPSESAGKKKKLSNNDEFVESTVSRRSSARRTIRPKNLDDYVE | not soluble
4 | MALHPAHPGAIIGHEAVLALLPRLTAQTLLFSGPEGVGRRTVARWYAWGLNRGFPPPSLGEHPDVLEVGPKARDLRGRAEVRLEEVAPLLEWCSSHPRERVKVAILDSAHLLTEAAANALLKLLEEPPSYARIVLIAPSRATLLPTLASRATEVAFAPVPEEALRALTQDPELLRYAAGAPGRLLRALQDPEGYRARMARAQRVLKAPPLERLALLRELLAEEEGVHALHAVLKRPEHLLALERAREALEGYVSPELVLARLALDLET | soluble
5 | GDYYDYLFKIVLIGDSGVGKSNLLSRFTRDEFNLESKSTIGVEFATKSIQLKNNKIIKAQIWDTAGQERYRAITSAYYRGAVGALLVYDITKKNSFENIEKWLKELRDNADSNIVILLVGNKSDLKHLRVINDNDATQYAKKEKLAFIETSALEATNVELAFHQLLNEIYNVRQKKQATKN | soluble
6 | IGEFSYSLNGNLSYAHNRILSRTQADNTLPWQSVLGSSVGELWGLKALGLYQSEEEIANSPQVSWNTPRVGDIKYADINGDGKIDSNDRIKISRGIRPEMMFALMADANYKGFDLSVQFQGAALCDKMLQYSWQDLNGATDMTPMTRPWYANWDNAPLYLVENSWRPDHTNAEYPRLTVSSVSHSNNAQQSDFWKRNGAYLRLKNVTLGYTLPKAWTNKMGLSNIRVYANGTNLLTFTDFKYIDPESTNVATGYYPQQRTFSFGIDVRF | not soluble
7 | MKIDTNFLCDLWMALFQFSNDENINEKECTALVDIMSLVEKVLVLKLQDDVPNIVKILAVLTDFGDSELPHSMDSLLRAYEPDLDNPIKKVA | not soluble
8 | MSLAQFYSAKRRVTTRQIITVKVNDLDSFGQGVARHNGKALFIPGLLPEESAEVIITEDKKQFARARVSRRLNDSPERETPRCPHFGVCGGCQQQHVSIALQQRSKSAALARLMKHEVNDIIAGAPWGYRRRARLSLNCPPDKPLQMGFRKAGSSDIVNVEQCPVLAPQLAALLPRIRACLASLHGTRHLGHVELVQAGSGTLMILRHTAPLSAADKEKLERFSHSEGLSLFLAPFSEILETVSGEAPWYDSHGLRLAFSPRDFIQVNEAVNQQMVARALEWLDVRAEDRVLDLFCGMGNFTLPLATRAASVIGVEGVPALVEKGRENAIRNGLHNVTFFHENLEEDVTKQPWAKNGFDKVLLDPARAGATGVMRHIIKLKPIRIVYVSCNPATLARDSEALVNAGYEVTRLAMLDMFPHTGHLESMVLFERMEGHHHHHH | soluble
9 | MGHHHHHHSHMSEDNRPLTGLAAAIAGAKLRKVSRMEDTSFPSGGNAIGVNSASSKTDTGRGNGPLPLGGSGLMEEMSALLARRRRIAEKGSTIETEQKEDKGEDSEPVTSKASSTSTPEPTRKPWERTNTMNGSKSPVISRPKSTPLSQPSANGVQTEGLDYDRLKQDILDEMRKELTKLKEELIDAIRQELSKSNTA | not soluble
10 | MTITYSGDELFLQLRGDLLNYLCRKLSKDEAADILQEIYLRWRRQDISSIENPRAFLFTVALNLIRDQARRQAHVQTYANTMQHLFQDKPADYDLAQHCDERRQIEYLQQALDQLPENVRHAFLLFRLDGLTFAEIALQMGISSKSVARYIQHASEHCLTALAQYR | not soluble
11 | MRKDRVTQGVDRIMQAIADKEFELGQAIPGEAKLAEFLDVSRPTMREVVRTLADRGVLEVVHGRGTFVAPLDHWSDVRSRVDFISRTLSPGEVGFHLTEVRRMIEVGSCGHAAARAEDCDLDRMQTALDAYDAALEAHDVAGIAKSDVEFHNAIFEATKNPVVTALMIPLEGELAASRLRTSAVSEVAERAQEHHRRIYSAIKASDEEGAKNAMRAHMSQTFDDLQRFVGEY | not soluble
12 | AHHHHHHGSYLEEKDGIKFYSLNKLEKEGFDVHSLPYSLRILAENILRHLNNGVVSYEHIENIFERKGDIPFYPARIIMQDYTGVPAIVDLAAMRDYIKEKGKDPSRVNPKIPVELVVDHSLIVLYHGTKYSLYENMKEELKANRERYSLLKWASKAFENLKIIPPGKGIIHQINVEHLARIVFLEEGIAYPDTVLGTDSHTPMVNGIGVLGWGVGGIEAEAALLGLPYFMKVPEVVGVVLEGEPSPEITPTDIVLTITEKLRKVGVVGKFLEYTGNVEALSAFDRTVIANMTPENGATVGYFPIDEETIKFIRLTRGESKAKLVEKYAKLNMLYREETPEFDKTVKIDLSKVEPSVAGPFHPEDRIRLKDLKNSFKVEKKTKIRINGGEVEIEDGIIGLAAIASCTNTSNPYNILAAALVAKKAVELGLRTKPWVKTTFTPGSRVVVKYLEKLGLLSYLEALGFHVNGYACASCIGNSGPLKREVEEVIDKGIKVAAVISGNRNFRRRVNSKIDYTYLASPPLVVVFAIAGKITIDPSEPLAYDPNGKPVYLTDILPTKEEVKKLEEVIGEELYKEAYSSLFEDSIWKDIETEESPLFKWDEKSTYVRKPPFFDLTPITDDIKGARALIVLGDRISTDDISPAGKIDPESPAGRYLLSLGVKPEELHTYGARRGNHEVMMRGTFARFKMIYWPTGEEMSVYEAAMRYKERGIPLIIIAGKQYGVGSSRDWAAKGPALLGVKAVIAESFERIHRSNLVGMGIVPLQFKDPEVRKRLTGEEVYDIIGLKDLYPGKTIKVIARKPNGEVIEFETIARVETPIEVEYIRHGGILKYALELLG | not soluble
13 | MGHHHHHHSHMQGLLRFEDQDSARGDQNIAMFYPTSTQMVYRRGLQAIPLSGDLWIHYINFLKETLDPGDPETNNTIRGTFEHAVLAAGTDFRSDRLWEMYIDWENEQGNLREVTAIYDRILGIPTQLCSHHFQRFKEHVQNNLPRDLLTGEQFIQLRRELASVNGHSGDDGPPGDDLPSGIEDITDPAKLITEIENMRHRIIEIHQEMFNYNEHEVSKRWTFEEGIKRPYFHVKPLEKAQLKKLERILRI | soluble
14 | MKSNPAIQAAIDLTAGAAGGTACVLTGQPFDTMKVKMQTFPDLYRGLTDCCLKTYSQVGFRGFYKGTSPALIANIAENSVLFMCYGFCQQVVRKVAGLDKQAKLSDLQNAAAGSFASAFAALVLCPTELVKCRLQTMYEMETSGKIAKSQNTVWSVIKSILRKDGPLGFYHGLSSTLLREVPGYFFFFGGYELSRSFFASGRSKDELGPVPLMLSGGVGGICLWLAVYPVDCIKSRIQVLSMSGKQAGFIRTFLNVVKNEGITALYSGLKPTMIRAFPANGALFLAYEYSRKLMMNQLEAY | soluble
15 | MQNHVISLASAAERRAHIAATFGSRGIPFQFFDALMPSERLEQAMAELVPGLSAHPYLSGVEKACFMSHAVLWKQALDEGLPYIAVFEDDVLLGKDAEKFLAEDTWLEERFDKDSAFIVRLETMFAKVIVRPDKVLNYENRSFPLLESEHCGTAGYIISREAMRFFLDRFAVLPPERIKAVDLMMFTYFFDKEGMPVYQVSPALCTQELHYAKFLSQNSMLGSDLEKDREQGRRHRRSLKVMFDLKRALGKFGREKKKRMERQRQAELEKVYGRRVILFKLEHHHHHH | soluble
16 | MSLGELPPAPSDSKRTVFLDIDETLVHVTPYPLPFVKPDATFLLQEHRRPSDPPGVSPEYLPGVSAGAAPRAALLHVYYRPFLMPFLENLLQTNRCELVAFTAALREYADPILDGIETKLGGARGSVFAARLYRQHCARAPRSKDLVHAAPSRCLSRCVLLDNSVVSLAAQLANGLLLRPFYGDPQDRELEGVLAFLLDLLEKTGDIRESMKESGMLHKVTEGHHHHHH | not soluble
17 | MEEKVEFILEVRSIPVYGDEFSPRLRKFFPIDYEPVERVTVPTSKKADYAVMISSNLKPFSIKEGDYILISLDDEPQEGDLVAVLVKDFRITVGRVKERQEDIFVVEVGNEVGIYRCFIFPYLDQLHRSSFELSFNPYVLGKITAILRKKPAH | soluble
18 | VGKVFVDAIVKFTKEGDKIPLEIVWDDGRRFEVDRVLDVTKAASLKAGGRGTRYKCRIRGKEIYLFFDDEKWFVETGNK | not soluble
19 | MGSDKIHHHHHHMKVLHIFPSAFLGGSELCAIESIESLQKTGVENHVILPAEGAVINRLENLSVSYKIIQHNWWMSSKPWKTYLKVFMLKGFYSSAASIREYIKNNGIDVVITHSIVIPSGALGARLTNTPHVWYLHEYGDLDHQLKFEYGKSFSLNLINKLSKKIIVNSDALKKHFSKKLPAAKINRLYYSVNYPEFTPLTEKPSGELLLCMVGRIAKGKNQLVALKALALLKQEQIFPQLVFVGGADPDYLKLLEAYIKTHELEKQIAFAGQTDRPWDFVMRSQAVVVGSAMEAFGRVTVEAMKAGRIPIVSDTGAGPELITHNENGFLFDPEKEKQLAEIIKQIWLGTDFTEMTVQAKQYALAHFNSKLHGHELLKILTGLV | not soluble
20 | MRGSHHHHHHGSALSNKFIGDDMKMTYHMDGCVNGHYFTVKGEGNGKPYEGTQTSTFKVTMANGGPLAFSFDILSTVFKYGNRCFTAYPTSMPDYFKQAFPDGMSYERTFTYEDGGVATASWEISLKGNCFEHKSTFHGVNFPADGPVMAKKTTGWDPSFEKMTVCDGILKGDVTAFLMLQGGGNYRCQFHTSYKTKKPVTMPPNHVVEHRIARTDLDKGGNSVQLTEHAVAHITSVVPF | soluble
21 | MGSDKIHHHHHHMPVDSKHPLWLANQPRWERCRTALQGRDAVHAAGEKYLPKLAGQDKAEYDAYKGRAMFYGATARTEEALIGMVFRKEPTVTLPAALQPMIEDADLAGTPVDTFIENVTKEVIDVTRVGVLVDYPVASGEFMTVGQAQAAGMRPYLATYKAEAIINWRTARVRGVNQLVLVVLAECYTDPKDEFTAEEKTQYRVLDLVDGFYRVRIYRTDLNTPAFEYTPMMNGKRLPYIPFVLIGRNGEAIDPQKPVLLDLVDVNMSHYRGTADYEHALHFTALPTAVVIGHELKEGQALKIGSSEAWVFTDPQADAKYLEFSGQGLDSIKVSLERKEGMMATLGARILAPEKRDAEAAETAKIHRAGENSVLGGIALGVGRSLAKAFRWAAEWAGAGSGTVEVKLNTEFFPAGLTAQDLTALVGALQAAAISPQTFYDNMRRGSIIDDGVTFEEEQDRIEAAGPALGTLGGQDVKPANGAV | not soluble
